The text below walks through data of article PMC5037138, “A Novel Class of Plant Type III Polyketide Synthase Involved in Orsellinic Acid Biosynthesis from Rhododendron dauricum” (Frontiers in Plant Science, 2016).

Assay in all cases: HPLC product quantification, Hanes-Woolf
Format in all cases: biochemical, Rhododendron dauricum

Substrate in data set [1]: CC(C)(COP(=O)(O)OP(=O)(O)OC[C@H]1O[C@@H](n2cnc3c(N)ncnc32)[C@H](O)[C@@H]1OP(=O)(O)O)[C@@H](O)C(=O)NCCC(=O)NCCSC(=O)/C=C/c1ccc(O)cc1
Conditions: naringenin formation, 200 uM malonyl-CoA, pH 7.0, 30 C.

Substrate in data set [2]: CCCC(=O)SCCNC(=O)CCNC(=O)[C@H](O)C(C)(C)COP(=O)(O)OP(=O)(O)OC[C@H]1O[C@@H](n2cnc3c(N)ncnc32)[C@H](O)[C@@H]1OP(=O)(O)O
Conditions: 4-hydroxy-6-propyl-2-pyrone formation, 200 uM malonyl-CoA, pH 7.0, 30 C. An excerpt: (§1) HPLC product quantification, Hanes-Woolf on ORS (orcinol synthase)

Substrate in data set [3]: CC(=O)SCCNC(=O)CCNC(=O)[C@H](O)C(C)(C)COP(=O)(O)OP(=O)(O)OC[C@H]1O[C@@H](n2cnc3c(N)ncnc32)[C@H](O)[C@@H]1OP(=O)(O)O
The following applies: orcinol formation (major product), 200 uM malonyl-CoA, 100 mM potassium phosphate pH 7.0, 30 C, no OAC.
Description: as §1

Substrate in data set [4]: CCCCCC(=O)SCCNC(=O)CCNC(=O)[C@H](O)C(C)(C)COP(=O)(O)OP(=O)(O)OC[C@H]1O[C@@H](n2cnc3c(N)ncnc32)[C@H](O)[C@@H]1OP(=O)(O)O
The following applies: 4-hydroxy-6-pentyl-2-pyrone formation, 200 uM malonyl-CoA, pH 7.0, 30 C.
Description: as §1

B1: CHS (R. dauricum chalcone synthase) (Rhododendron dauricum) (protein)
chain: MVTVEDVRKAQRAEGPATVMAIGTATPPNCVDQSTYPDFYFRITNSEHKAELKEKFQRMCDKSMIKKRYMYLTEEILKENPSVCEYMAPSLDARQDMVVVEVPKLGKEAATKAIKEWGQPKSKITHLVFCTTSGVDMPGADYQLTKLLGLRPSVKRLMMYQQGCFAGGTVLRLAKDLAENNKGARVLVVCSEITAVTFRGPSDTHLDSLVGQALFGDGAAAIIVGADPVPEVEKPLFELVSAAQTILPDSDGAIDGHLREVGLTFHLLKDVPGLISKNIEKALTEAFQPLGISDWNSIFWIAHPGGPAILDQVELKLSLKPEKLRATRHVLSEYGNMSSACVLFILDEMRRKSAEEGLKTTGEGLEWGVLFGFGPGLTVETVVLHSLCT
notes: full length, 389 residues (42,599 Da), N-terminal His6 tag kept (pQE80L), E. coli M15; ~45 kDa subunit; homodimer ~94 kDa
Consider B1, for which, in data set [1], the Km (in general, the substrate concentration at which the rate is half of its maximum) was found to be 8.15 µM; the kcat (commonly the number of substrate molecules converted per active site and unit of time at saturation) was found to be 0.0089 s⁻¹.

B2: ORS (orcinol synthase) (Rhododendron dauricum) (protein)
chain: MALVNHRENVKGRAQILAIGTANPKNCFRQVDYPDYYFRVTKSDHLIDLKAKFKRMCEKSMIEKRYMHVNEEILEQNPSMNHGGEKMVSSLDVRLDMEIMEIPKLAAEAATKAMDEWGQPKSRITHLVFHSTLGTVMPGVDYELIKLLGLNPSVKRFMLYHLGCYGGGTVLRLAKDLAENNPGSRVLVLCCEMMPSGFHGPPSLQHAHLDILTGHAIFGDGAGAVIVGCVDPSGGTNGVVERGVRRYEQPLFEIHSAYQTVLPDSKDAVGGRLREAGLIYYLSKRLSNDVSGKIDECCLAEAFSAAIKDNFEDWNSLFWIVHPAGRPILDKLDAKLGLNKEKLRASRNVLRDYGNMWSSSVLFVLDEMRKGSIAQRKTTTGEGFEWGVLLGFGPGVTVETVVLRSVPTAKLK
notes: full length, 412 residues (45,707 Da), N-terminal His6 tag kept (pQE80L), E. coli M15; ~48 kDa subunit; homodimer ~101 kDa
Regarding B2, the Km turned out to be 17.1 µM in data set [2], 9.98 µM in data set [3] and 26.4 µM in data set [4]. Further, the kcat in data set [2] turned out to be 0.00675 s⁻¹; in data set [3], 0.0243 s⁻¹; in data set [4], 0.00482 s⁻¹.
